Test results taken from the nanobody polyreactivity screen of Harvey et al. (2022).

assay: yeast display, Sf9 membrane polyspecificity reagent, FACS + sequencing; frameworks hold sequencing errors
Procedure, shortened: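 In a synthetic yeast display library (Saccharomyces cerevisiae BJ5465), nanobody expression was induced with galactose for 36–48 hours. FACS gates were set low and high (top ~1%) using anti-HA fluorescence for expression and streptavidin fluorescence for binding of the Sf9 membrane reagent. Each polyreactivity label is drawn from the gate of origin.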

| Sequence | polyreactivity (PSR sort gate) |
| --- | --- |
| QVQLVESGGGLVQAGGSLRLSCAASGSIFYTNVMGWYRQAPGKERELVAAISSSGDRTYYADSVKGRFTISRDNAKNTVYLQMNSLKPEDTAVYYCAAQSYRSRYYYWGQGTQVTVSS | high polyreactivity |
| QVQLVESGGGLVQAGGSLRLSCAASGSIFYTYAMGWYRQAPGKERELVAAISRSGGSTYYADSVKGRFTISRDNAKNTVYLQMNSLKPEDTAVYYCAAVSYRGRGYWGQGTQVTVSS | high polyreactivity |
| QVQLVESGGGLVQAGGSLRLSCAASGSIFYTYTMGWYRQAPGKERELVAAISTRGGSTYYADSVKGRFTISRDNAKNTFYLQMNSLKPEDTAVYYCAAGLQRYRMYYWGQGTQVTVSS | high polyreactivity |
| QVQLVESGGGLVQAGGSLRLSCAASGSIFYVNAMGWYRQAPGTERELVAAISWRSGRTYYADSVKGRFTISRDHAKNTVYLQMHSLKPEDTAVYYCAARVRRGSTQAQYYYWGQGTQVTVSS | high polyreactivity |
| QVQLVESGGGLVQAGGSLRLSCAASGSIFYVNVMGWYRQAPGKERELVATISSGDTNYADSVKGRFTISRDNAKNTVYLQMNSLKPEDTAVYYCARRRTIPYTLVDYDSWGQGTQVTVSS | low polyreactivity |
| QVQLVESGGGLVQAGGSLRLSCAASGSIFYVYAMGWYRQAPGKERELVAAIRRSGTSTYYADSVKGRFTISRDNAKNTVYLQMNSLKPEDSAVYYCAARYEVRHTLYNYWGQGTQVTVSS | high polyreactivity |
| QVQLVESGGGLVQAGGSLRLSCAASGSIFYWYAMGWYRQAPGKERELVAGITGRGGSTYYADSVKGRFTISRDNAKNTVYLQMNSLKPEDSAVYYADFVKYGKYYQRYDYWAQGTQVTVSS | high polyreactivity |
| QVQLVESGGGLVQAGGSLRLSCAASGSIFYWYAMGWYRQAPGKERELVATNRYRGGNTYYADSVKGRFTISRDNAMNTVYLQMNSLKAEDTAVYYADFVKFCKYYQRYDYWGQGTQVTVSS | high polyreactivity |
| QVQLVESGGGLVQAGGSLRLSCAASGSIFYWYAMGWYSQAPGKERELVAAIDISDDTYYADSVKGRFTISRDNAKNTVYLQMNSLKPEDTAGYYCAARTTRWFYEYDWGQGSQVTVSS | high polyreactivity |
| QVQLVESGGGLVQAGGSLRLSCAASGSIFYYKYSMGWYRQAPGKERELVAAITSTGGTTYYADSVKGRFTISRDNAKNTVYLQMNSLKPEDTAVYYCAALAPYIGGVDYDYWGQGTQVTVSS | low polyreactivity |
| QVQLVESGGGLVQAGGSLRLSCAASGSIFYYNAMGWYRPAPGKERELVAAITWSGGTYYADSVKGRFTISRDNAKNTVYLQMNSLKPEDTAVYYCNGARLYKWSFTPKFEMDHWGQGTQVTVSS | low polyreactivity |
| QVQLVESGGGLVQAGGSLRLSCAASGSIFYYNAMGWYRQAPGKERELDANISWNGASTYYADSVKGRFTISRDNAKNSVYLQMLSLKPEDTAVYYCATAGKGDPPWLPSEVTDYYYWGQGTQVTVSL | low polyreactivity |
| QVQLVESGGGLVQAGGSLRLSCAASGSIFYYNAMGWYRQAPGKERELVAAITSSGGSTYADSVKGRFSISRDNAKNTVYLQMKSLKPEDTAVYYCNADGGYSYESTDHYGYEYWGQGTQVTVSS | low polyreactivity |
| QVQLVESGGGLVQAGGSLRLSCAASGSIFYYNAMGWYRQAPGKERELVATITSGGSTYYADSVKGRFTISRDNAKNTVYLQMNSLKPEDTAVYYCAPRSQSIRYTYIRSYYWGQGTQVTVSS | low polyreactivity |
| QVQLVESGGGLVQAGGSLRLSCAASGSIFYYNAMGWYSQAPGKERELVAAITGSGGSTYYADSVKGRFTISRDNAKNTVYLQMNSLKPEDTAVYYCAADYSLYGWWFRNDYWGQGTQVTVSS | low polyreactivity |
| QVQLVESGGGLVQAGGSLRLSCAASGSIFYYNDRGWSRQAPGKDRELVATIRSGGNTNYADSVKGRFTISRDIAKNTVYLQMNSLKPEDSAVYYCTARGAYHGYRYDSWGQGTQVTVSS | low polyreactivity |
| QVQLVESGGGLVQAGGSLRLSCAASGSIFYYNTMGWYRQAPGKERELVAAIRSSSGRTYYADSVKGRFTISRDNAKNTVYLQMNSLKPEDTAVYYCATVHSYTIQRYDYWGQGTQVTVSS | high polyreactivity |
| QVQLVESGGGLVQAGGSLRLSCAASGSIFYYYAMGWSRQAPGKEREFVAAIRESGGSTYYADSVKGSFTISRDNAKNTVYLQMNSLKAEDTAVYYCAVRRPRRNYNYPYDYWGQGTQVTVSS | low polyreactivity |
| QVQLVESGGGLVQAGGSLRLSCAASGSIFYYYAMGWYRQAPGKERELVAAIDASGGSTYYADSVKGRFTISRDNAKNTVYLQMNSLKPEDTAVYYCATRSPRLSRHRRYYSWGQGTQVTVSS | high polyreactivity |
| QVQLVESGGGLVQAGGSLRLSCAASGSIFYYYAMGWYRQAPGKERELVAAISSGGVRTYYADSVKGRFTISRDNAKNTVYLQMKSLKPEDTAVYYCAKDVHSGVTLIHERYYWGQGTQVTVSS | low polyreactivity |
| QVQLVESGGGLVQAGGSLRLSCAASGSIFYYYAMGWYRQAPGKERELVAAISYGGGSTYYADSVKGRFTISRDNAKNTVYLQMNSLKPEDTAVYYCAVQEVVGWYLYDYWGQGTQVTVSS | high polyreactivity |
| QVQLVESGGGLVQAGGSLRLSCAASGSIFYYYAMGWYRQAPGKERELVASISTDGSTYADSVKGRFTISRDNAKNTVYLQMNSLKPEDTAVYYCNADTRGEYTYVSWYDYWGQGTQVTVSS | low polyreactivity |

| Sequence | polyreactivity (PSR sort gate) |
| --- | --- |
| QVQLVESGGGLVQAGGSLRLSCAASGSIFYYYTMGWYRAAPGKERELVAGISRSGDRTYYADSVKGRFTISRDNAKNTVYLQMNSLKPEVTAVYYCATRWSSARMDYWGQGTQVTVSS | high polyreactivity |
| QVQLVESGGGLVQAGGSLRLSCAASGSIFYYYTMGWYRPAPGKERELVASITGGGSTYYADSVKGRFTISRDNAKNTVYLQMNSLKPDDTAVYYCAAYRYGVTNAYGYWGQGTQVTVSS | high polyreactivity |
| QVQLVESGGGLVQAGGSLRLSCAASGSIIAINAMGWYRQAPGKERDLVAAISWNTGTTYYADSVKGRFTISRDNAKNTVYLQMNSLKPEDTAVYYCAADLWRWESLYKIWLPQYDYWGQGTQVTVSS | high polyreactivity |
| QVQLVESGGGLVQAGGSLRLSCAASGSIIAYYGMGWYRQAPGKESELVAAITSDASTYYADSVKWRFTISRDNAKKTDYLQMNSLKPVDTAVYYCYAYSYYYVYGYDMGYWGQGTQVTVSS | low polyreactivity |
| QVQLVESGGGLVQAGGSLRLSCAASGSIICVNAMGWYRQATGKERELVAAISSTGGSTYYADSVKGRFTISRDNAKNTVYLQMNSLKPEDTAVYYCNTDYSKSIGDGYAGFDYWGQGTQVTVSS | low polyreactivity |
| QVQLVESGGGLVQAGGSLRLSCAASGSIIDQYVMGWYRQAPGKERELVADISIRGGSTYYADSVKGRFTISRDNAKNTVYFQMNSLKPEDTAVYYCNADEWWGYPWEEDDYWGQGTQVTVSS | low polyreactivity |
| QVQLVESGGGLVQAGGSLRLSCAASGSIIGDNTKGWYRQAPGKERELVAAISWRGGSTYYADSVKGRFTISLDNAKNTVFLQMNSLKPEDTAVYYCIGGPGGYDYWGQGSQVTVSS | low polyreactivity |
| QVQLVESGGGLVQAGGSLRLSCAASGSIIGGNAMGWYRQAPGKERELVAAIRSGGRTNYADSVKGRFTISRDNAKNTVYLQMNSLKPEDTAVYYCAADYYLGGGYWGQGTQVTVSS | low polyreactivity |
| QVQLVESGGGLVQAGGSLRLSCAASGSIIGRYTMGWYRQAPGKERELVAAINRSGGSTSYADSVKGRFTISRDNAKNTVYLQMNSLKPEDTAVYYCNRARSVPQFYGTYGFGYDYWGQGTQVTVSS | low polyreactivity |
| QVQLVESGGGLVQAGGSLRLSCAASGSIIGVNAMGWYRQAPGKERELVAAISSTGGSTYYADSVKGRFTLSRDNAKNTVYLQMNSLKPEDTAVYSCNTDYSKSIGDGYAGFDYWGQGTQVTVSS | low polyreactivity |
| QVQLVESGGGLVQAGGSLRLSCAASGSIIGYNTMGWYRQAPGKERELVAAISYSSGSTHYADSVKGRFTISRDNAKNTVYLQMNSLKPEDTAVYYCNTVRRWSFGYWGQGTQVTVSS | low polyreactivity |
| QVQLVESGGGLVQAGGSLRLSCAASGSIIGYYAMGWYRQAPGKECEFVAAITRSGARTYYADSLKGRFTISRDNAKNTVYLQMNSLKPEDTAVYYCAAGAYYRYTIEYDYWGQGTQVTVSS | high polyreactivity |
| QVQLVESGGGLVQAGGSLRLSCAASGSIIKAYAMGWYREAAGKERELVATITRSGVSTYYADSVNGRFTISRDNAKNTVYLQMKSLKPEDTAVYYCNRTGYVRFYITQQRGYFRYDYWGQGTQVTVSS | low polyreactivity |
| QVQLVESGGGLVQAGGSLRLSCAASGSIIKPYDMGWYRQAPGKERELVAAIRSSGGRTNYADSVKGRFTISRDNAKNTVYLQMNSLKPEDTAVYYCAAGYVSYWYYRYDYWGQGTQVTVSS | high polyreactivity |
| QVQLVESGGGLVQAGGSLRLSCAASGSIIKRNAMGWSIQAPGKERELVASISSGGTYYADSVKGRFTISRDNAKNTVYLQMNSLKPEDSAVYYCATDRGVIYRGISGYIHYDYWGQGTQVTGSS | low polyreactivity |
| QVQLVESGGGLVQAGGSLRLSCAASGSIILPNTMGWYRQAPGKERELVASISWNGGRTYYADSVKGRFTISRDNAKNTVYLQMNSLKPEDTAVYYCNADFRYPRVRYDYWGQGTQVTVSS | low polyreactivity |
| QVQLVESGGGLVQAGGSLRLSCAASGSIILQNAMGWYRQAPGKERELVAAITNGGSTNYADSVKGRFTISRDNAKNTVYLQMNSLKPEDTAVYYCAAYPLYTGSYDRGGYWGQGTQVTVSS | low polyreactivity |
| QVQLVESGGGLVQAGGSLRLSCAASGSIINRYAMGWYRQARGKERELVAAITQSGGRTYYADSVKGRFTISRDNAKNTVYLQMNSLKPEDTAVYYCAKAGWPGSYIYYRFRVGYDSWGQGTQVTVSS | high polyreactivity |
| QVQLVESGGGLVQAGGSLRLSCAASGSIIQGYAMGWYRQAPGKERELVAVITTSGGSTYYADSVKGRFTISRDNAKNTVYLQMNSLKPEDTAVYYCAVGLLVYSRTYIGQAYFRYNYWGQGTQVTVSS | high polyreactivity |
| QVQLVESGGGLVQAGGSLRLSCAASGSIIQGYAMGWYRQEPGKERELVAAITGDGTTNYADSVKGRFTISRDNAKNNVYLQMNSLKPEDTAVYYCSATGLFNKFHGYGYLGQGTQVTVSS | low polyreactivity |
| QVQLVESGGGLVQAGGSLRLSCAASGSIIQGYVMGWYRQAPGKERELDAAISNSGSSTYYADSVKGRFTISRDNAKNTVYLQMNSLKPEDTAVYYCAVLRSYRGSKYGYWGQGTQVTVSS | high polyreactivity |
